Consider 14 molecules from patent publication US20250163164A1 (LANOVA MEDICINES DEVELOPMENT, published 2025).

To fix the notation:
B1: 61H8C1 H2L2 hIgG1 (antibody, V domains shown)
VH: QVQLVQSGAEVAKPGASVKVSCKASGYTFTSYWTQWIRQAPGQGLEGMGAIYPGDDDTSYNQKFKGRVTMTADTSTSTVYMELSSLRSEDTAVYYCARGATLLRPFPYWGQGTLVTVSS
VL: DIQMTQSPSSLSTSVGDRVTITCKASQDVSTAVAWYQQKPGKSPKLLIYSASYRYTGVPSRFSGSGSGTDFTLTISSLQPEDFATYSCQQHYSIPPTFGQGTKLEIK
notes: humanized, hIgG1
B2: 61H8C1 H1L1 hIgG1 (antibody, V domains shown)
VH: QVQLVQSGAEVKKPGASVKVSCKASGYTFTSYWTQWVRQAPGQGLEWMGAIYPGDDDTSYNQKFKGRVTMTRDTSTSTVYMELSSLRSEDTAVYYCARGATLLRPFPYWGQGTLVTVSS
VL: DIQMTQSPSSLSASVGDRVTITCKASQDVSTAVAWYQQKPGKAPKLLIYSASYRYTGVPSRFSGSGSGTDFTLTISSLQPEDFATYYCQQHYSIPPTFGQGTKLEIK
notes: humanized, hIgG1
B3: 61H8C1 H1L3 hIgG1 (antibody, V domains shown)
VH: QVQLVQSGAEVKKPGASVKVSCKASGYTFTSYWTQWVRQAPGQGLEWMGAIYPGDDDTSYNQKFKGRVTMTRDTSTSTVYMELSSLRSEDTAVYYCARGATLLRPFPYWGQGTLVTVSS
VL: DIQMTQSPSSLSTSVGDRVTITCKASQDVSTAVAWYQQKPGKSPKLLIYSASYRYTGVPDRFSGSGSGTDFTFTISSLQPEDFATYSCQQHYSIPPTFGGGTKLEIK
notes: humanized, hIgG1
B4: 61H8C1 H3L1 hIgG1 (antibody, V domains shown)
VH: QVQLVQSGAEVAKPGASVKVSCKASGYTFTSYWTQWIRQAPGQGLEGIGAIYPGDDDTSYNQKFKGRATLTADKSTSTVYMQLSSLRSEDTAVYYCARGATLLRPFPYWGQGTLVTVSS
VL: DIQMTQSPSSLSASVGDRVTITCKASQDVSTAVAWYQQKPGKAPKLLIYSASYRYTGVPSRFSGSGSGTDFTLTISSLQPEDFATYYCQQHYSIPPTFGQGTKLEIK
notes: humanized, hIgG1
B5: 61H8C1 H2L3 hIgG1 (antibody, V domains shown)
VH: QVQLVQSGAEVAKPGASVKVSCKASGYTFTSYWTQWIRQAPGQGLEGMGAIYPGDDDTSYNQKFKGRVTMTADTSTSTVYMELSSLRSEDTAVYYCARGATLLRPFPYWGQGTLVTVSS
VL: DIQMTQSPSSLSTSVGDRVTITCKASQDVSTAVAWYQQKPGKSPKLLIYSASYRYTGVPDRFSGSGSGTDFTFTISSLQPEDFATYSCQQHYSIPPTFGGGTKLEIK
notes: humanized, hIgG1
B6: 61H8C1 H3L4 hIgG1 (antibody, V domains shown)
VH: QVQLVQSGAEVAKPGASVKVSCKASGYTFTSYWTQWIRQAPGQGLEGIGAIYPGDDDTSYNQKFKGRATLTADKSTSTVYMQLSSLRSEDTAVYYCARGATLLRPFPYWGQGTLVTVSS
VL: DIVMTQSPSSLSTSVGDRVTITCKASQDVSTAVAWYQQKPGKSPKLLIYSASYRYTGVPDRFTGSGSGTDFTFTISSVQPEDFATYSCQQHYSIPPTFGGGTKLEIK
notes: humanized, hIgG1
B7: 61H8C1 H1L2 hIgG1 (antibody, V domains shown)
VH: QVQLVQSGAEVKKPGASVKVSCKASGYTFTSYWTQWVRQAPGQGLEWMGAIYPGDDDTSYNQKFKGRVTMTRDTSTSTVYMELSSLRSEDTAVYYCARGATLLRPFPYWGQGTLVTVSS
VL: DIQMTQSPSSLSTSVGDRVTITCKASQDVSTAVAWYQQKPGKSPKLLIYSASYRYTGVPSRFSGSGSGTDFTLTISSLQPEDFATYSCQQHYSIPPTFGQGTKLEIK
notes: humanized, hIgG1
B8: 61H8C1 H2L4 hIgG1 (antibody, V domains shown)
VH: QVQLVQSGAEVAKPGASVKVSCKASGYTFTSYWTQWIRQAPGQGLEGMGAIYPGDDDTSYNQKFKGRVTMTADTSTSTVYMELSSLRSEDTAVYYCARGATLLRPFPYWGQGTLVTVSS
VL: DIVMTQSPSSLSTSVGDRVTITCKASQDVSTAVAWYQQKPGKSPKLLIYSASYRYTGVPDRFTGSGSGTDFTFTISSVQPEDFATYSCQQHYSIPPTFGGGTKLEIK
notes: humanized, hIgG1
B9: 61H8C1 H4L2 hIgG1 (antibody, V domains shown)
VH: QVQLVQSGAEVAKPGASVKLSCKASGYTFTSYWTQWIKQAPGQGLEGIGAIYPGDDDTSYNQKFKGKATLTADKSTSTAYMQLSSLRSEDTAVYYCARGATLLRPFPYWGQGTLVTVSS
VL: DIQMTQSPSSLSTSVGDRVTITCKASQDVSTAVAWYQQKPGKSPKLLIYSASYRYTGVPSRFSGSGSGTDFTLTISSLQPEDFATYSCQQHYSIPPTFGQGTKLEIK
notes: humanized, hIgG1
B10: 61H8C1 H2L1 hIgG1 (antibody, V domains shown)
VH: QVQLVQSGAEVAKPGASVKVSCKASGYTFTSYWTQWIRQAPGQGLEGMGAIYPGDDDTSYNQKFKGRVTMTADTSTSTVYMELSSLRSEDTAVYYCARGATLLRPFPYWGQGTLVTVSS
VL: DIQMTQSPSSLSASVGDRVTITCKASQDVSTAVAWYQQKPGKAPKLLIYSASYRYTGVPSRFSGSGSGTDFTLTISSLQPEDFATYYCQQHYSIPPTFGQGTKLEIK
notes: humanized, hIgG1
B11: 61H8C1 H3L2 hIgG1 (antibody, V domains shown)
VH: QVQLVQSGAEVAKPGASVKVSCKASGYTFTSYWTQWIRQAPGQGLEGIGAIYPGDDDTSYNQKFKGRATLTADKSTSTVYMQLSSLRSEDTAVYYCARGATLLRPFPYWGQGTLVTVSS
VL: DIQMTQSPSSLSTSVGDRVTITCKASQDVSTAVAWYQQKPGKSPKLLIYSASYRYTGVPSRFSGSGSGTDFTLTISSLQPEDFATYSCQQHYSIPPTFGQGTKLEIK
notes: humanized, hIgG1
B12: 61H8C1 H3L3 hIgG1 (antibody, V domains shown)
VH: QVQLVQSGAEVAKPGASVKVSCKASGYTFTSYWTQWIRQAPGQGLEGIGAIYPGDDDTSYNQKFKGRATLTADKSTSTVYMQLSSLRSEDTAVYYCARGATLLRPFPYWGQGTLVTVSS
VL: DIQMTQSPSSLSTSVGDRVTITCKASQDVSTAVAWYQQKPGKSPKLLIYSASYRYTGVPDRFSGSGSGTDFTFTISSLQPEDFATYSCQQHYSIPPTFGGGTKLEIK
notes: humanized, hIgG1
B13: 61H8C1 H4L1 hIgG1 (antibody, V domains shown)
VH: QVQLVQSGAEVAKPGASVKLSCKASGYTFTSYWTQWIKQAPGQGLEGIGAIYPGDDDTSYNQKFKGKATLTADKSTSTAYMQLSSLRSEDTAVYYCARGATLLRPFPYWGQGTLVTVSS
VL: DIQMTQSPSSLSASVGDRVTITCKASQDVSTAVAWYQQKPGKAPKLLIYSASYRYTGVPSRFSGSGSGTDFTLTISSLQPEDFATYYCQQHYSIPPTFGQGTKLEIK
notes: humanized, hIgG1
B14: 61H8C1 H1L4 hIgG1 (antibody, V domains shown)
VH: QVQLVQSGAEVKKPGASVKVSCKASGYTFTSYWTQWVRQAPGQGLEWMGAIYPGDDDTSYNQKFKGRVTMTRDTSTSTVYMELSSLRSEDTAVYYCARGATLLRPFPYWGQGTLVTVSS
VL: DIVMTQSPSSLSTSVGDRVTITCKASQDVSTAVAWYQQKPGKSPKLLIYSASYRYTGVPDRFTGSGSGTDFTFTISSVQPEDFATYSCQQHYSIPPTFGGGTKLEIK
notes: humanized, hIgG1

The experiment deals with T1, human interleukin 13 receptor subunit alpha 2 (IL-13RA2) (human, UniProt Q14627 27-380).
T1 construct: whole, on cells; also called IL-13Rα2; CD213A2
T1 sequence (looked up): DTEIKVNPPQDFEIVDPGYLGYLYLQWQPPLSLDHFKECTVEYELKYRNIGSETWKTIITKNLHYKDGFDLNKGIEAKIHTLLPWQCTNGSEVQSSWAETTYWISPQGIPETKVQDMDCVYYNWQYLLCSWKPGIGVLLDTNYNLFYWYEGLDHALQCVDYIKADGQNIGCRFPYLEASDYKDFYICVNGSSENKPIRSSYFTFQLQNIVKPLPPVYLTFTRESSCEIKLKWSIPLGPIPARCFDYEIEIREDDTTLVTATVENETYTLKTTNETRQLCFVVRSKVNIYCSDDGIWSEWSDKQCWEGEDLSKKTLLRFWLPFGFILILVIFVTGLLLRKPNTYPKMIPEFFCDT
Nature of the experiment: FACS on A375 cells. On the procedure: A375 cells that endogenously expressed IL-13RA2, were harvested from flasks. 100 μl of 1×10⁶ cells/ml of cells were incubated with primary humanized antibodies in 4-fold serial dilutions starting from 200 nM to 0.003 nM for 30 minutes on ice. After being washed with 200 μl of FACS buffer twice, cells were incubated with secondary antibody for 30 minutes on ice. Cells were washed with 200 μl of FACS buffer twice and analyzed by FACS.
A word on the EC50: it is the midpoint of the concentration-response curve. Read a low EC50 as greater potency. Consider B1, for which a half-maximal effect (EC50) was put at 0.15 nM and the “Top (MFI)” value came out at 22400 MFI.
Turning to B2, it took 0.14 nM to reach a half-maximal effect (EC50) and the “Top (MFI)” value was 20300 MFI.
For B3 the same measures were 0.2 nM and 20000 MFI.
For B4 the same measures were 0.15 nM and 20600 MFI.
For the molecule B5, the EC50 is 0.19 nM and the “Top (MFI)” value was 22100 MFI.
For B6 the same measures were 0.2 nM and 22000 MFI.
On the same counts, the results for B7 are 0.15 nM and 19600 MFI.
In the case of B8, the midpoint of the response, the EC50, lay at 0.18 nM and the “Top (MFI)” value was 21900 MFI.
Regarding B9, the EC50 was determined as 0.14 nM and the “Top (MFI)” value turned out to be 21100 MFI.
On the same counts, the results for B10 are 0.16 nM and 22400 MFI.
For B11 the same measures were 0.17 nM and 22300 MFI.
For B12 the same measures were 0.15 nM and 20100 MFI.
On to B13, for which the EC50 is 0.17 nM and the “Top (MFI)” value is 22200 MFI.
On the same counts, the results for B14 are 0.17 nM and 19800 MFI.
